Test results reported in publication doi:10.1101/2020.09.16.300517.
Values joined by “and” are separate entries in the source; they are usually repeats but may differ in a detail not shown here. Identical values can stand only once.

Key:
[1] = target: phalloidin-stabilized pyrene-labeled F-actin (rabbit) (UniProt P68135); test: other fluorescence titration
[2] = target: bovine cardiac ventricular β-myosin subfragment 1 (α-chymotryptic S1) (bovine); test: stopped-flow fluorescence kinetics

| Substance | PFA fluorescence restored by MgATP, with Mava [1] | PFA fluorescence restored by MgATP, with OM [1] | decrease in pyrene fluorescence intensity at S1:actin 0.7:1 [1] | stoichiometry N [1] | Kd [2] |
| --- | --- | --- | --- | --- | --- |
| bovine cardiac ventricular β-myosin subfragment 1 (α-chymotryptic S1) (domain or fragment) | 84% | 65% | 46% | 1 S1 per actin |  |
| phalloidin-stabilized pyrene-labeled F-actin (from UniProt P68135 1-377) (natural protein) |  |  |  |  | 0.048 µM and 0.057 µM |
